Changes are numbered by the printed parent chain.
B1: AMX(395)_A4 (ssDNA)
DNA: TCCCGGGAGATCGCTTCGAAAATGGTTGGCGTGGGTGGCTGAGGATCGATC
B2: AMX(399)_F5 (ssDNA)
DNA: TCCCTAGATCGGGTCCTGGTAGTGTTTCTGGGTGGCTGAGGATCGATC
B3: AMX(399)_D2 (ssDNA)
DNA: TCCCGATCGCTGTCCTAGGATGGGTAGGGTGGTGGCTGAGGATCGATC
B4: AMX(398)_A1 (ssDNA)
DNA: TCCGATTGACGTGGTGGGTTACTGGTTTGGGTGGCTGAGGATCGATC
B5: AMX(395)_D11 (ssDNA)
DNA: TCCCAAGATCGGTACATACAGTGGGTGGTGAGGGTGGCTGAGGATCGATC
B6: AMX(398)_D6 (ARC2026) (ssDNA)
DNA: TCCCGAGCGATACTGCCTAGGTTGGGTAGGGTGGTGGCTGAGGATCGATC
B7: AMX(395)_B7 (ssDNA)
DNA: TCCCGGGATCGAGTCCGATTAGGGATGGTGTGGGTGGCTGAGGATCGATC
B8: AMX(399)_H3 (ssDNA)
DNA: TCCCAATCGGTCCTGGTAATATATTGGTCGGGGTGGCTGAGGATCGATC
B9: AMX(398)_C8 (ARC2027) (ssDNA)
DNA: TCCTGAGGGATCAGGCTAGGTTGGGTAGGGTGGTGGCTGAGGATCGATC
B10: AMX(398)_E3 (ssDNA)
DNA: TCCCGAGTGATCCGGGGTGTTTTTTTGGGTTGGGTGGCTGAGGATCGATC
B11: AMX(399)_D5 (ssDNA)
DNA: TCCCGTTCGAGTCCTGGTGTTTTATTGGCCTGGGTGGCTGAGGATCGATC
B12: AMX(395)_C1 (ssDNA)
DNA: TCCCGGGTGGTTATCTTCTCAGGGATGGTGTGGGTGGCTGAGGATCGATC
B13: AMX(399)_D11 (ssDNA)
DNA: TCCCAGAGAGCCGGGGTATAATTGTGGTGTGGGTGGCTGAGGATCGATC
B14: AMX(399)_E5 (ssDNA)
DNA: TCCCATCGAGCCGGGTATGTTTCGTTGGGCTGGGTGGCTGAGGATCGATC
B15: AMX(399)_D3 (ssDNA)
DNA: TCCCGCGATCTCTGGGGTAACGTTTTGGTGTGGGTGGCTGAGGATCGATC
B16: AMX(399)_D12 (ssDNA)
DNA: TCCCATCGATCTGTGGTCTTTTTTGGTGTGGGTGGCTGAGGATCGATC
B17: AMX(399)_D9 (ssDNA)
DNA: TCCCAGGATCGATTCTGGTATTGTTGGTGGGGGTGGCTGAGGATCGATC
B18: AMX(399)_C12 (ssDNA)
DNA: TCCCGATCTATCCGGGGTACATTTGTGGTTTGGGTGGCTGAGGATCGATC
B19: AMX(399)_E4 (ssDNA)
DNA: TCCCATCGAACCGCGGGTAATCTTATGGGTCGGGTGGCTGAGGATCGATC
B20: AMX(399)_E9 (ssDNA)
DNA: TCCCATCGATACGGGGTGGAATCTTGGGGTGGGTGGCTGAGGATCGATC
B21: AMX(399)_D6 (ssDNA)
DNA: TCCCGCATTGAATAGGACTCAGGGATGGTGTGGGTGGCTGAGGATCGATC
B22: AMX(399)_C8 (ssDNA)
DNA: TCCCGTCGATCAGGGGTAATTTGCTGGTGGTGGGTGGCTGAGGATCGATC
B23: AMX(399)_B9 (ssDNA)
DNA: TCCTGTCGATCCCTACGGGTAGTGTTGGTTTGGGTGGCTGAGGATCGATC
B24: AMX(399)_C9 (ssDNA)
DNA: TTCCTGTCGATAAGGGGTATTATAGTGGTGTGGGTGGCTGAGGATCGATC
B25: AMX(398)_F2 (ssDNA)
DNA: TCCCATCGAGTCGTGGTGTTTTGTTGGCCTGGGTGGCTGAGGATCGATC
B26: AMX(399)_D8 (ssDNA)
DNA: TCTCGATCGGACGTGGTGGGTTACTGGCTTGGGTGGCTGAGGATCGATC
B27: AMX(399)_E1 (ssDNA)
DNA: TCCCACGATCCGGGGTGTCTTTCGTGGGCTGGGTGGCTGAGGATCGATC
B28: AMX(398)_F6 (ssDNA)
DNA: TCCCTTGATCCGGTGGTAGTTTTATTGGTGCGGGTGGCTGAGGATCGATC
B29: AMX(399)_D7 (ssDNA)
DNA: TCCCTCGATCTAAGGTGCTTTTAGTGGTTTGGGTGGCTGAGGATCGATC
B30: AMX(399)_E10 (ssDNA)
DNA: TCCCGATTGTCATAGGTGGTTTGTCTGGGTAGGGTGGCTGAGGATCGATC
B31: AMX(398)_F5 (ssDNA)
DNA: TCCCGATCGAGAGTGGTATTTGTTTTCTGGGTGGCTGAGGATCGATC
B32: AMX(399)_B10 (ssDNA)
DNA: TCCCATTGATCCGGGGTGGTTTTCTGGTTTGGGTGGCTGAGGATCGATC
B33: AMX(399)_D10 (ssDNA)
DNA: B32 DNA with T7C, C12T, G14T, C24G
B34: AMX(399)_B12 (ssDNA)
DNA: TCCCATCGATTTGTCCTCAGAGGTTGGCGTGGGTGGCTGAGGATCGATC
B35: AMX(399)_E3 (ssDNA)
DNA: TCCCGATTTCGATTCTGGTAGTGTTTTCTGGGTGGCTGAGGATCGATC
B36: AMX(399)_D4 (ssDNA)
DNA: TCCCGATTGATTCTGGGAGGTTTGGTTCTGGGTGGCTGAGGATCGATC
B37: AMX(399)_B11 (ssDNA)
DNA: TCCCGTCGATTCGGTATGGTTTCGTTTCTGGGTGGCTGAGGATCGATC
B38: AMX(399)_C10 (ssDNA)
DNA: TCTCATTCGTTCCGGGGTATTTAGTGGGTCGGGTGGCTGAGGATCGATC
B39: AMX(399)_C7 (ssDNA)
DNA: TCCCGAGCGATCGGGGTGGTTTTTTGGGAGTGGGTGGCTGAGGATCGATC

biological target: T1, thrombin (alpha-thrombin) (Homo sapiens, UniProt P00734;P00734 P00734:315-363,P00734:364-622); experiment: filter; DPBS Ca2+ Mg2+, 0.1 mg/ml BSA; conditions: not given

Binder	Kd [nM]
B1	29.4
B2	2.35
B3	1.33
B4	0.3
B5	5.55
B6	0.29
B7	14.5
B8	1.93
B9	0.42
B10	0.89
B11	2.26
B12	7.48

biological target: T1, thrombin (alpha-thrombin); experiment: filter; 10 nM thrombin; conditions: not given

Binder	binding signal [% bound]
B13	41.3
B14	15
B15	21.7
B16	32.6
B17	20.3
B18	18.7
B19	7.5
B20	14.8
B21	22.7
B22	36.8
B23	14.7
B24	11.2
B25	8.76
B26	22.2
B27	37.6
B28	23.9
B29	7.59
B30	29.8
B31	21.3
B32	24.4
B33	38.8
B34	24.2
B35	13
B36	10.4
B37	18.7
B38	35.4
B39	6.8

biological target: prothrombin (Homo sapiens, UniProt P00734 P00734:44-622); experiment: filter; 50 nM prothrombin; conditions: tags: Athens Research
Procedure: Dot blot binding assays were performed throughout the selections to monitor the protein binding affinity of the pools. Trace ³²P-labeled RNA was combined with a dilution series of human Thrombin (1 nM-1000 nM) and incubated at room temperature for 30 minutes in 1×DPBS (w/ Ca²⁺ and Mg²⁺) (Gibco, Catalog #14040, Invitrogen, Carlsbad, Calif.) plus 0.1 mg/ml BSA in a final volume of 30 μl. The binding reactions were analyzed by nitrocellulose filtration using a Minifold I dot-blot, 96-well vacuum filtration manifold (Schleicher & Schuell, Keene, N.H.). A three-layer filtration medium was used, consisting (from top to bottom) of Protran nitrocellulose (Schleicher & Schuell, Keene, N.H.), Hybond-P nylon (Amersham Biosciences, Piscataway, N.J.) and GB002 gel blot paper (Schleicher & Schuell, Keene, N.H.). RNA that is bound to protein is captured on the nitrocellulose filter, whereas the non-protein bound RNA is captured on the nylon filter. The gel blot paper was included simply as a supporting medium for the other filters. Following filtration, the filter layers were separated, dried and exposed on a phosphor screen (Amersham Biosciences, Piscataway, N.J.) and quantified using a Storm 860 Phosphorimager® blot imaging system (Amersham Biosciences, Piscataway, N.J.).
Based on pool binding monitored throughout the selections as described above, Round 9 Pools from both Selection #2 and #3 were also cloned using a TOPO TA Cloning kit (Invitrogen, Carlsbad, Calif.) according to manufacturer's instructions, and sequenced. Of the 136 sequences obtained from Round 9 of both selections, 130 unique sequences were selected for assaying in a single-point dot blot screen against thrombin and prothrombin to test for selective binding to thrombin. Clones were ordered from IDT (Coralville, Iowa) at 25 μmole synthesis scale. Clone transcripts were 5′ end labeled with γ̅³²P ATP and spin purified with Centrisep columns (Princeton Separations, Adelphia, N.J.) to remove excess label. Trace amounts of labeled clone were incubated with +/−10 nM Thrombin (or +/−50 nM prothrombin) and 0.1 mg/ml BSA in a total volume of 30 μl 1×DPBS (w/ Ca²⁺ and Mg²⁺) (Gibco, Catalog #14040, Invitrogen, Carlsbad, Calif.) for 30 minutes. Post incubation, the binding reaction applied the dot-blot binding assay apparatus previously described.

Binder	binding signal [% bound]
B13	39.5
B14	12.5
B15	25.3
B2	49.3
B16	32.2
B17	19.7
B18	17.2
B19	7.29
B20	13.8
B4	18
B21	22
B22	33.8
B23	14.3
B24	10.9
B25	8.81
B26	19.6
B27	39.1

Binder	binding signal [% bound]
B28	24.6
B29	24.9
B30	28.9
B8	45.5
B31	19.4
B32	23.6
B33	40.8
B9	48.5
B34	15.3
B10	47.5
B35	13.3
B36	9.02
B11	23.8
B37	18.2
B38	34.3
B39	6.94
